According to publication PMC2873776 (Biochemistry, 2010):

Biological target: the molecule itself
Experiment: pulsed dipolar ESR spectroscopy

B1: Tm14C N125C homodimer, spin-labeled (domain or fragment)
chain: RRIEEVKERFVNLNRLFQELVGDFQAKSDQLVSVIQDMEKISENIMEELKKSGTNVDQIVERVKEASSQIGETLENIRSIEKLIQCIMRIARETNILALNATIEAARAGEAGKGFMIVANEVQNLSNETNEVTKQIVEKAREILESSQRSLENLEFMANLFETVGKTLQNMVRF
modifications: MTSSL nitroxide spin label on Cys125
**Q.** B1 was tested. Which “stoichiometry N” value did it give?
**A.** 2
